How the values were obtained:
Conditions in all cases: Homo sapiens
[1] = compound: N=C(N)NCCC[C@H](NC(=O)[C@H](Cc1c[nH]c2ccccc12)NC(=O)[C@@H](N)CS)C(=O)O; experiment: Allosteric activation of SIRT1 (unknown origin) expressed in bacterial expression system assessed as Vmax for substrate at 80 uM using Fluorophore labeled-Arg-His-Lys-Lys (Ac) as substrate incubated for 30 mins in presence of NAD+ by fluorimetric method (reference value: 1666.67 uM)
[2] = compound: N=C(N)NCCC[C@H](NC(=O)[C@H](Cc1c[nH]c2ccccc12)NC(=O)[C@@H](N)CS)C(=O)O; experiment: Allosteric activation of SIRT1 (unknown origin) expressed in bacterial expression system assessed as apparent Km for substrate at 40 uM using Fluorophore labeled-Arg-His-Lys-Lys (Ac) as substrate incubated for 30 mins in presence of NAD+ by fluorimetric method (reference value: 507 uM)
[3] = compound: N=C(N)NCCC[C@H](NC(=O)[C@H](Cc1c[nH]c2ccccc12)NC(=O)[C@@H](N)CS)C(=O)O; experiment: Allosteric activation of SIRT1 (unknown origin) expressed in bacterial expression system assessed as apparent Km for substrate at 160 uM using Fluorophore labeled-Arg-His-Lys-Lys (Ac) as substrate incubated for 30 mins in presence of NAD+ by fluorimetric method (reference value: 507 uM)
[4] = compound: N=C(N)NCCC[C@H](NC(=O)[C@H](Cc1c[nH]c2ccccc12)NC(=O)[C@@H](N)CS)C(=O)O; experiment: Allosteric activation of SIRT1 (unknown origin) expressed in bacterial expression system assessed as apparent Km for substrate at 120 uM using Fluorophore labeled-Arg-His-Lys-Lys (Ac) as substrate incubated for 30 mins in presence of NAD+ by fluorimetric method (reference value: 507 uM)
[5] = compound: N=C(N)NCCC[C@H](NC(=O)[C@H](Cc1c[nH]c2ccccc12)NC(=O)[C@@H](N)CS)C(=O)O; experiment: Allosteric activation of SIRT1 (unknown origin) expressed in bacterial expression system assessed as Vmax for substrate at 120 uM using Fluorophore labeled-Arg-His-Lys-Lys (Ac) as substrate incubated for 30 mins in presence of NAD+ by fluorimetric method (reference value: 1666.67 uM)
[6] = compound: N=C(N)NCCC[C@H](NC(=O)[C@H](Cc1c[nH]c2ccccc12)NC(=O)[C@@H](N)CS)C(=O)O; experiment: Allosteric activation of SIRT1 (unknown origin) expressed in bacterial expression system assessed as apparent Km for substrate at 80 uM using Fluorophore labeled-Arg-His-Lys-Lys (Ac) as substrate incubated for 30 mins in presence of NAD+ by fluorimetric method (reference value: 507 uM)
[7] = compound: N=C(N)NCCC[C@H](NC(=O)[C@H](Cc1c[nH]c2ccccc12)NC(=O)[C@@H](N)CS)C(=O)O; experiment: Allosteric activation of SIRT1 (unknown origin) expressed in bacterial expression system assessed as Vmax for substrate at 160 uM using Fluorophore labeled-Arg-His-Lys-Lys (Ac) as substrate incubated for 30 mins in presence of NAD+ by fluorimetric method (reference value: 1666.67 uM)
[8] = compound: N=C(N)NCCC[C@H](NC(=O)[C@H](Cc1c[nH]c2ccccc12)NC(=O)[C@@H](N)CS)C(=O)O; experiment: Allosteric activation of SIRT1 (unknown origin) expressed in bacterial expression system assessed as Vmax for substrate at 40 uM using Fluorophore labeled-Arg-His-Lys-Lys (Ac) as substrate incubated for 30 mins in presence of NAD+ by fluorimetric method (reference value: 1666.67 uM)

B1: NAD-dependent protein deacetylase sirtuin-1 (Homo sapiens), Q96EB6 (protein)
chain: MADEAALALQPGGSPSAAGADREAASSPAGEPLRKRPRRDGPGLERSPGEPGGAAPEREVPAAARGCPGAAAAALWREAEAEAAAAGGEQEAQATAAAGEGDNGPGLQGPSREPPLADNLYDEDDDDEGEEEEEAAAAAIGYRDNLLFGDEIITNGFHSCESDEEDRASHASSSDWTPRPRIGPYTFVQQHLMIGTDPRTILKDLLPETIPPPELDDMTLWQIVINILSEPPKRKKRKDINTIEDAVKLLQECKKIIVLTGAGVSVSCGIPDFRSRDGIYARLAVDFPDLPDPQAMFDIEYFRKDPRPFFKFAKEIYPGQFQPSLCHKFIALSDKEGKLLRNYTQNIDTLEQVAGIQRIIQCHGSFATASCLICKYKVDCEAVRGDIFNQVVPRCPRCPADEPLAIMKPEIVFFGENLPEQFHRAMKYDKDEVDLLIVIGSSLKVRPVALIPSSIPHEVPQILINREPLPHLHFDVELLGDCDVIINELCHRLGGEYAKLCCNPVKLSEITEKPPRTQKELAYLSELPPTPLHVSEDSSSPERTSPPDSSVIVTLLDQAAKSNDDLDVSESKGCMEEKPQEVQTSRNVESIAEQMENPDLKNVGSSTGEKNERTSVAGTVRKCWPNRVAKEQISRRLDGNQYLFLPPNRYIFHGAEVYSDSEDDVLSSSSCGSNSDSGTCQSPSLEEPMEDESEIEEFYNGLEDEPDVPERAGGAGFGTDGDDQEAINEAISVKQEVTDMNYPSNKS
Vmax [1]: 1250 µM | Km [2]: 236 µM | Km [3]: 75 µM | Km [4]: 72 µM | Vmax [5]: 1110 µM | Km [6]: 168 µM | Vmax [7]: 1110 µM | Vmax [8]: 1430 µM

— ChEMBL document CHEMBL4007386, “Design, synthesis of allosteric peptide activator for human SIRT1 and its biological evaluation in cellular model of Alzheimer's disease” (Eur J Med Chem, 2017)
